The source of these data is publication PMC3792637 (Chembiochem, 2013).

For test [1], the target named is K165-γ-thialysine S. aureus N-acetylneuraminic acid lyase (Staphylococcus aureus NCTC 8325) (UniProt Q2G160). In words: crystal structure.
In test [2] the target is K165C variant of S. aureus N-acetylneuraminic acid lyase (Staphylococcus aureus NCTC 8325) (UniProt Q2G160). The test can be described thus: crystal structure.
In test [3] the target is T1, S. aureus NAL (N-acetylneuraminic acid lyase) (Staphylococcus aureus, UniProt Q2G160).
T1 sequence (Q2G160 1-293): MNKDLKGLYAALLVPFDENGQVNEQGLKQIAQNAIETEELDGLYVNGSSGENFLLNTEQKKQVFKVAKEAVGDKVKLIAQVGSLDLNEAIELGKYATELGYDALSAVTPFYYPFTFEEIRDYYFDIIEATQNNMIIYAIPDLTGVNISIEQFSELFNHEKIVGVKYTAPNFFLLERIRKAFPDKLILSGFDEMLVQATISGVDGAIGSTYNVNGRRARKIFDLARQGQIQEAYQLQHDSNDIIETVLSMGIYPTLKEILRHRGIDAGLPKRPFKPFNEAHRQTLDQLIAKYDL
The test can be described thus: X-ray crystal structure, soak. The following applies: covalent Schiff base with Lys165; 100 mM sodium pyruvate soak. The class given is binding.

In the case of “K165-γ-thialysine S. aureus N-acetylneuraminic acid lyase (from UniProt Q2G160 1-293) (enzyme)”, the stoichiometry N in test [1] turned out to be 4.
For “K165C variant of S. aureus N-acetylneuraminic acid lyase (from UniProt Q2G160 2-293) (enzyme)”, in test [2], the stoichiometry N amounted to 4.
In the case of `CC(=O)C(=O)O` [pyruvate], the “X-ray crystal structure, soak” value in test [3] was “the structure of the enzyme–pyruvate complex (PDB ID: 4AH7) was also determined”.

As a reminder, the stoichiometry N is the number of molecules, sites or subunits per partner or assembly.
